Among the data in the Human Domainome abundance scans (Beltran et al. 2025) are abundance fitness values, retold here.

± gives the uncertainty stated by the source.

B1: Transcription elongation factor A N-terminal and central domain-containing protein, residues 30 to 77; numbered along this chain, Q8N8B7 (parent)
chain: LTELETIYVTKEHLQETDVVRAVYRVLKNCPSVALKKKAKCLLSKWKA

Variants of B1 are the subject of the data set. As to the kind of experiment: abundance fitness (aPCA) (normalised: wild type 0, dead -1); higher = more abundant; growth selection in yeast, the domain comes from the species named. The settings on record: Homo sapiens.
For the variant LTELETIYVTKEHLQETDVVRAVYRVLKNCPSGALKKKAKCLLSKWKA [V33G], the abundance fitness is 0.012 ± 0.068.

With LTELETIYVTKEHLQETDVVRAVYRVLKNCPSEALKKKAKCLLSKWKA [V33E], the abundance fitness is -0.208 ± 0.093. Turning to LTELETIYVTKEHLQETDVVRAVYRVLKNCPSMALKKKAKCLLSKWKA [V33M], the abundance fitness was -0.027 ± 0.1. Take LTELETIYVTKEHLQETDVVRAVYRVLKNCPSRALKKKAKCLLSKWKA [V33R]: the abundance fitness was found to be 0.155 ± 0.064. Consider LTELETIYVTKEHLQETDVVRAVYRVLKNCPSAALKKKAKCLLSKWKA [V33A], for which the abundance fitness was -0.016 ± 0.081.

For the variant LTELETIYVTKEHLQETDVVRAVYRVLKNCPSFALKKKAKCLLSKWKA [V33F], the abundance fitness worked out at 0.427 ± 0.33.

LTELETIYVTKEHLQETDVVRAVYRVLKNCPSSALKKKAKCLLSKWKA [V33S]: the abundance fitness was found to be 0.089 ± 0.09. With LTELETIYVTKEHLQETDVVRAVYRVLKNCPSHALKKKAKCLLSKWKA [V33H], the abundance fitness is -0.527 ± 0.2. Regarding LTELETIYVTKEHLQETDVVRAVYRVLKNCPSPALKKKAKCLLSKWKA [V33P], the abundance fitness turned out to be 0.129 ± 0.11. With LTELETIYVTKEHLQETDVVRAVYRVLKNCPSTALKKKAKCLLSKWKA [V33T], the abundance fitness was -0.146 ± 0.1. LTELETIYVTKEHLQETDVVRAVYRVLKNCPSYALKKKAKCLLSKWKA [V33Y]: the abundance fitness is -0.327 ± 0.16. For LTELETIYVTKEHLQETDVVRAVYRVLKNCPSVASKKKAKCLLSKWKA [L35S], the abundance fitness is -0.8 ± 0.37. With LTELETIYVTKEHLQETDVVRAVYRVLKNCPSVAFKKKAKCLLSKWKA [L35F], the abundance fitness is -0.293 ± 0.28. As to LTELETIYVTKEHLQETDVVRAVYRVLKNWPSVALKKKAKCLLSKWKA [C30W], the abundance fitness was found to be 0.119 ± 0.075. In the case of LTELETIYVTKEHLQETDVVRAVYRVLKNVPSVALKKKAKCLLSKWKA [C30V] it was 0.062 ± 0.08; in that of LTELETIYVTKEHLQETDVVRAVYRVLKNIPSVALKKKAKCLLSKWKA [C30I], 0.204 ± 0.15; in that of LTELETIYVTKEHLQETDVVRAVYRVLKNGPSVALKKKAKCLLSKWKA [C30G], 0.012 ± 0.064. Take LTELETIYVTKEHLQETDVVRAVYRVLKNQPSVALKKKAKCLLSKWKA [C30Q]: the abundance fitness was -0.189 ± 0.12. Consider LTELETIYVTKEHLQETDVVRAVYRVLKNPPSVALKKKAKCLLSKWKA [C30P], for which the abundance fitness is -0.244 ± 0.14.

For the variant LTELETIYVTKEHLQETDVVRAVYRVLKNFPSVALKKKAKCLLSKWKA [C30F], the abundance fitness amounted to 0.121 ± 0.14.

As to LTELETIYVTKEHLQETDVVRAVYRVLKNAPSVALKKKAKCLLSKWKA [C30A], the abundance fitness is -0.338 ± 0.11.

For LTELETIYVTKEHLQETDVVRAVYRVLKNNPSVALKKKAKCLLSKWKA [C30N], the abundance fitness is -0.274 ± 0.14. Regarding LTELETIYVTKEHLQETDVVRAVYRVLKNMPSVALKKKAKCLLSKWKA [C30M], the abundance fitness turned out to be 0.035 ± 0.12. Regarding LTELETIYVTKEHLQETDVVRAVYRVLKNLPSVALKKKAKCLLSKWKA [C30L], the abundance fitness worked out at 0.075 ± 0.086. In the case of LTELETIYVTKEHLQETDVVRAVYRVLKNSPSVALKKKAKCLLSKWKA [C30S], the abundance fitness was -0.514 ± 0.087. Turning to LTELETIYVTKEHLQETDVVRAVYRVLKNHPSVALKKKAKCLLSKWKA [C30H], the abundance fitness is -0.743 ± 0.24. As for LTELETIYVTKEHLQETDVVRAVYRVLKNEPSVALKKKAKCLLSKWKA [C30E], the abundance fitness is -0.935 ± 0.17. LTELETIYVTKEHLQETDVVRAVYRVLKNYPSVALKKKAKCLLSKWKA [C30Y]: the abundance fitness is -0.632 ± 0.1. As to LTELETIYVTKEHLQETDVVRAVYRVLKNDPSVALKKKAKCLLSKWKA [C30D], the abundance fitness was -0.442 ± 0.16. With LTELETIYVTKEHLQETDVVRAVYRVLKNCPSVALMKKAKCLLSKWKA [K36M], the abundance fitness is 0.085 ± 0.1.

Consider LTELETIYVTKEHLQETDVVRAVYRVLKNCPSVALPKKAKCLLSKWKA [K36P], for which the abundance fitness is -0.211 ± 0.13.

With LTELETIYVTKEHLQETDVVRAVYRVLKNCPSVALLKKAKCLLSKWKA [K36L], the abundance fitness is -0.137 ± 0.079. In the case of LTELETIYVTKEHLQETDVVRAVYRVLKNCPSVALNKKAKCLLSKWKA [K36N], the abundance fitness is -0.833 ± 0.19. For the variant LTELETIYVTKEHLQETDVVRAVYRVLKNCPSVALCKKAKCLLSKWKA [K36C], the abundance fitness was -0.225 ± 0.097.

LTELETIYVTKEHLQETDVVRAVYRVLKNCPSVALQKKAKCLLSKWKA [K36Q]: the abundance fitness was -0.063 ± 0.12. With LTELETIYVTKEHLQETDVVRAVYRVLKNCPSVALGKKAKCLLSKWKA [K36G] the figure was -0.109 ± 0.062; with LTELETIYVTKEHLQETDVVRAVYRVLKNCPSVALFKKAKCLLSKWKA [K36F], -0.007 ± 0.13. LTELETIYVTKEHLQETDVVRAVYRVLKNCPSVALSKKAKCLLSKWKA [K36S]: the abundance fitness is -0.609 ± 0.097. Consider LTELETIYVTKEHLQETDVVRAVYRVLKNCPSVALHKKAKCLLSKWKA [K36H], for which the abundance fitness was -0.633 ± 0.18.

As to LTELETIYVTKEHLQETDVVRAVYRVLKNCPSVALAKKAKCLLSKWKA [K36A], the abundance fitness was -0.063 ± 0.073.

Take LTELETIYVTKEHLQETDVVRAVYRVLKNCPSVALEKKAKCLLSKWKA [K36E]: the abundance fitness was -1.32 ± 0.24. Take LTELETIYVTKEHLQETDVVRAVYRVLKNCPSVALIKKAKCLLSKWKA [K36I]: the abundance fitness is -0.152 ± 0.15. Take LTELETIYVTKEHLQETDVVRAVYRVLKRCPSVALKKKAKCLLSKWKA [N29R]: the abundance fitness was 0.144 ± 0.081.

With LTELETIYVTKEHLQETDVVRAVYRVLKLCPSVALKKKAKCLLSKWKA [N29L], the abundance fitness is 0.004 ± 0.076. With LTELETIYVTKEHLQETDVVRAVYRVLKSCPSVALKKKAKCLLSKWKA [N29S] the figure was -0.144 ± 0.076; with LTELETIYVTKEHLQETDVVRAVYRVLKICPSVALKKKAKCLLSKWKA [N29I], -0.167 ± 0.13. As to LTELETIYVTKEHLQETDVVRAVYRVLKYCPSVALKKKAKCLLSKWKA [N29Y], the abundance fitness is -0.466 ± 0.14. As for LTELETIYVTKEHLQETDVVRAVYRVLKPCPSVALKKKAKCLLSKWKA [N29P], the abundance fitness was -0.904 ± 0.17.

As to LTELETIYVTKEHLQETDVVRAVYRVLKKCPSVALKKKAKCLLSKWKA [N29K], the abundance fitness was -0.029 ± 0.11. With LTELETIYVTKEHLQETDVVRAVYRVLKMCPSVALKKKAKCLLSKWKA [N29M] the figure was 0.052 ± 0.1; with LTELETIYVTKEHLQETDVVRAVYRVLKQCPSVALKKKAKCLLSKWKA [N29Q], -0.259 ± 0.15; with LTELETIYVTKEHLQETDVVRAVYRVLKGCPSVALKKKAKCLLSKWKA [N29G], -0.282 ± 0.074. In the case of LTELETIYVTKEHLQETDVVRAVYRVLKVCPSVALKKKAKCLLSKWKA [N29V], the abundance fitness was -0.186 ± 0.075. With LTELETIYVTKEHLQETDVVRAVYRVLKTCPSVALKKKAKCLLSKWKA [N29T] the figure was 0.024 ± 0.11.
